From article PMC9891822, “Cysteine Pathogenic Variants of PMM2 Are Sensitive to Environmental Stress with Loss of Structural Stability” (Oxidative Medicine and Cellular Longevity, 2023)

B1: Phosphomannomutase2 (PMM2) wild type (enzyme, human, UniProt O15305-1 1-246, looked up)
chain: MAAPGPALCLFDVDGTLTAPRQKITKEMDDFLQKLRQKIKIGVVGGSDFEKVQEQLGNDVVEKYDYVFPENGLVAYKDGKLLCRQNIQSHLGEALIQDLINYCLSYIAKIKLPKKRGTFIEFRNGMLNVSPIGRSCSQEERIEFYELDKKENIRQKFVADLRKEFAGKGLTFSIGGQISFDVFPDGWDKRYCLRHVENDGYKTIYFFGDKTMPGGNDHEIFTDPRTMGYSVTAPEDTRRICELLFS
notes: PMM2, human, open reading frame NM_000303, primers from the start codon to the stop codon; Cloned into pET28a(+) 'containing 6x His-tag'; also called PMM2-WT; WT; source: E. coli BL21 (DE3), purified (Ni-NTA, Superdex 75)
B2: PMM2 Cys241Ser (C241S) variant (enzyme, human, UniProt O15305-1 1-246, looked up)
chain: MAAPGPALCLFDVDGTLTAPRQKITKEMDDFLQKLRQKIKIGVVGGSDFEKVQEQLGNDVVEKYDYVFPENGLVAYKDGKLLCRQNIQSHLGEALIQDLINYCLSYIAKIKLPKKRGTFIEFRNGMLNVSPIGRSCSQEERIEFYELDKKENIRQKFVADLRKEFAGKGLTFSIGGQISFDVFPDGWDKRYCLRHVENDGYKTIYFFGDKTMPGGNDHEIFTDPRTMGYSVTAPEDTRRISELLFS
notes: PMM2, human, open reading frame NM_000303, with the pathogenic variant C241S (c. G722C) found in patients; Cloned into pET28a(+) 'containing 6x His-tag'; also called PMM2-C241S; source: E. coli BL21 (DE3), purified (Ni-NTA, Superdex 75)
B3: PMM2 Cys9Tyr (C9Y) variant (enzyme, human, UniProt O15305-1 1-246, looked up)
chain: MAAPGPALYLFDVDGTLTAPRQKITKEMDDFLQKLRQKIKIGVVGGSDFEKVQEQLGNDVVEKYDYVFPENGLVAYKDGKLLCRQNIQSHLGEALIQDLINYCLSYIAKIKLPKKRGTFIEFRNGMLNVSPIGRSCSQEERIEFYELDKKENIRQKFVADLRKEFAGKGLTFSIGGQISFDVFPDGWDKRYCLRHVENDGYKTIYFFGDKTMPGGNDHEIFTDPRTMGYSVTAPEDTRRICELLFS
notes: PMM2, human, open reading frame NM_000303, with the pathogenic variant C9Y (c. G26A) found in patients; Cloned into pET28a(+) 'containing 6x His-tag'; also called PMM2-C9Y; source: E. coli BL21 (DE3), purified (Ni-NTA, Superdex 75)

Target: the molecule itself
Experiment: SEC; Superdex 75 10/300GL on an AKTA purifier; 100 uL of 0.2 mg/mL protein injected; 0.6 mL/min; 20 mM Na2HPO4, 150 mM NaCl, 1 mM EDTA; mass estimated from the elution volume

Stoichiometry N, 2:
B1
B2
B3
